The RNAGym collection of RNA variant scans (doi:10.7554/elife.80360)

B1: Hairpin Ribozyme (parent)
chain: GUCCUCUUUCACGUGCGCGUGAAAGAGAGAAGUGAACCAGAGAAACACACGUUGUGGUAUAUUACCUGGUA

Variants of: B1
Assay: self-cleavage, relative activity (ratio to wild type); higher = more cleavage; co-transcriptional

| Variant | self-cleavage |
| --- | --- |
| GUCCUCUUUCUCGUGCGCGUGAAAGAGAGAAGUGAACCAGAGAACCACACGUUGUGGUAUAUUACCUGGUA | 0.241 |
| GUCCUCUUUCUCGUGCGCGUGAAAGAGAGAAGUGAACCAGAGAAGCACACGUUGUGGUAUAUUACCUGGUA | 0 |
| GUCCUCUUUCUCGUUCGCGUGAAAGAGAGAAGUGAACCAGAGAAACACACGUUGUGGUAUAUUACCUGGUA | 0.895 |
| GUCCUCUUUCUCGUGCGCGUGAAAGAGAGAAGUGAACCAGAGAAACACACGUUGUGGUAUAUUAGCUGGUA | 0.308 |
| GUCCUCUUUCUCGUGCGCGUGAAAGAGAGAAGUGAACCAGAGAAACACACGUUGUGGUAUAUUAUCUGGUA | 0.25 |
| GUCCUCUUUCUCGUGCGCGUGAAAUAGAGAAGUGAACCAGAGAAACACACGUUGUGGUAUAUUACCUGGUA | 0.568 |
| GUCCUCUUUCUCGUGCGCGUGAAAAAGAGAAGUGAACCAGAGAAACACACGUUGUGGUAUAUUACCUGGUA | 0.402 |
| GUCCUCUUUCGCGUGCGCGUGAAAGAGAGAAGUGAACCAGAGAAACACACGUUGUGGUAUAUUACCAGGUA | 0.243 |
| GUCCUCUUUCGCGUGCGCGUGAAAGAGAGAAGUGAACCAGAGAAACACACGUUGUGGUAUAUUACCGGGUA | 0.354 |
| GUCCUCUUUCUCGUGCGCGUGAAAGAGAGAAGUGAACCAGAGAAACACACGUUGUGGUAUAUGACCUGGUA | 0.175 |
| GUCCUCUUUCUCGUGCGCGUGAAAGAGAGAAGUGAACCAGAGAAACACACGUUGUGGUAUAGUACCUGGUA | 0.0971 |
| GUCCUCUUUCUCGUGCGCGUGAAAGAGAGAAGUGAACCAGAGAAACACACGUUAUGGUAUAUUACCUGGUA | 0.538 |
| GUCCUCUUUCUCGUGCGCGUGAAAGAGAGAAGUGAACCAUAGAAACACACGUUGUGGUAUAUUACCUGGUA | 0.154 |
| GUCCUCUUUCUCGUGCGCGUGAAAGAGAGAAGUGUACCAGAGAAACACACGUUGUGGUAUAUUACCUGGUA | 0.717 |
| GUCCUCUUUCUCGUGCGCGUGAAAGAGAGAAGUGAACCAGAGAAACACACGUUGUGGCAUAUUACCUGGUA | 0.822 |
| GUCCUCUUUCUUGUGCGCGUGAAAGAGAGAAGUGAACCAGAGAAACACACGUUGUGGUAUAUUACCUGGUA | 0.694 |
| GUCCUCUUUCUAGUGCGCGUGAAAGAGAGAAGUGAACCAGAGAAACACACGUUGUGGUAUAUUACCUGGUA | 0.763 |
| GUCCUCUUUCUCGUGCGCGUGAAAGAGAGAAGUGAACCAGAGAAACACACGUUGUGGUAUAUUACCUGGUC | 1.17 |
| GUCCUCUUUCUCGUGCGCGUGAAAGAUAGAAGUGAACCAGAGAAACACACGUUGUGGUAUAUUACCUGGUA | 0.394 |

| Variant | self-cleavage |
| --- | --- |
| GUCCUCUUUCUCGUGCGCGUGAAAGAGAAAAGUGAACCAGAGAAACACACGUUGUGGUAUAUUACCUGGUA | 0.137 |
| GUCCUCUUUCUCGUGCGAGUGAAAGAGAGAAGUGAACCAGAGAAACACACGUUGUGGUAUAUUACCUGGUA | 0.826 |
| GUCCUCUUUCUCGUGCGCGUGAAAGAGAGAAGUGAACCAGAGAAACACACGUUGUGAUAUAUUACCUGGUA | 0.15 |
| GUCCUCUUUCUCGUGCGCGUGAAAGAGAGAAGUGAACCAGAGAAACACACGUUGUGUUAUAUUACCUGGUA | 0.337 |
| GUCCUCUUUCUCGAGCGCGUGAAAGAGAGAAGUGAACCAGAGAAACACACGUUGUGGUAUAUUACCUGGUA | 0.796 |
| GUCCUCUUUCAAGUGCGCGUGAAAGUGAGAAGUGAACCAGAGAAACACACGUUGUGGUAUAUUACCUGGUA | 0.522 |
| GUCCUCUUUCAAGUGCGCGUGAAAGGGAGAAGUGAACCAGAGAAACACACGUUGUGGUAUAUUACCUGGUA | 0.766 |
| GUCCUCUUUCUCGUGCGCGUGAAAGAGAGAAGUGAACCAGAGAAACAUACGUUGUGGUAUAUUACCUGGUA | 0.154 |
| GUCCUCUUUCUCGUGCGCGUGAAAGAGAGAAGUGAACCAGAGAAACAAACGUUGUGGUAUAUUACCUGGUA | 0.215 |
| GUCCUCUUUCAAGUGCGCGUGAUAGAGAGAAGUGAACCAGAGAAACACACGUUGUGGUAUAUUACCUGGUA | 0.671 |
| GUCCUCUUUCAAGUGCGCGUGAGAGAGAGAAGUGAACCAGAGAAACACACGUUGUGGUAUAUUACCUGGUA | 0.677 |
| GUCCUCUUUCGCGUGCGCGUGAAAGAGAGAAGUGAACCAGAGAAACACACGUUGUGGUAUAUUACCUGGGA | 0.846 |
| GUCCUCUUUCAAGUGCGCGUGAAAGAGAGAAGUGAACCGGAGAAACACACGUUGUGGUAUAUUACCUGGUA | 0.285 |
| GUCCUCUUUCAAGUGCGCGUGAAAGAGAGAAGUGAACCUGAGAAACACACGUUGUGGUAUAUUACCUGGUA | 0.425 |
| GUCCUCUUUCUCGUGCGCGUGAAAGAGAGAAUUGAACCAGAGAAACACACGUUGUGGUAUAUUACCUGGUA | 0.0846 |
| GUCCUCUUUCUCGUGCGCGUGAAAGAGAGAAGUGAACCAGAGCAACACACGUUGUGGUAUAUUACCUGGUA | 0.139 |
| GUCCUCUUUCUCGUGCGCGUGAAAGAGAGAAGUGAACCAGAGGAACACACGUUGUGGUAUAUUACCUGGUA | 0.135 |
| GUCCUCUUUCUCGUGCGCGUGAAAGAGAGAAGUGAACCAGAGAAACGCACGUUGUGGUAUAUUACCUGGUA | 0.247 |
| GUCCUCUUUCUCGUGCGCGUGAAAGAGAGAAGUGAACCAGAGAAACCCACGUUGUGGUAUAUUACCUGGUA | 0.232 |
